The record followed here is US10800847.

In test [1] the target is HLA-A*2902 (A29) single antigen on beads (human). Kind of test: Luminex single-antigen regular beads (#7), IVIg 1:4.
Test [2] has as its target HLA-A*3101 (A31) single antigen on beads (human). The description is as above.
Test [3] concerns the target HLA-A*3002 (A30) single antigen on beads (human). Described as above.
Test [4] addresses HLA-A*6801 (A68) single antigen on beads (human). Described as above.
Test [5] deals with HLA-A*3303 (A33) single antigen on beads (human). The description is as above.
The target in test [6] is HLA-A*3402 (A34) single antigen on beads (human). The test is described as above.
Test [7] has as its target HLA-A*3301 (A33) single antigen on beads (human). The test is described as above.
Test [8] concerns the target HLA-A*3201 (A32) single antigen on beads (human). The description is as above.
Test [9] concerns the target HLA-A*6601 (A66) single antigen on beads (human). The description is as above.
For test [10], the target named is HLA-Cw*0304 (Cw10) (human). Kind of test: Luminex, regular beads (#7), 1:4.
For test [11], the target named is HLA-Cw*0602 (Cw6) (human). Kind of test: Luminex, regular beads (#7), 1:4.
For test [12], the target named is HLA-Cw*0302 (Cw10) (human). Kind of test: Luminex, regular beads (#7), 1:4.
Test [13] has as its target HLA-Cw*1402 (Cw14) (human). Kind of test: Luminex, regular beads (#7), 1:4.
Test [14] has as its target HLA-Cw*1203 (Cw12) (human). Kind of test: Luminex, regular beads (#7), 1:4.
For test [15], the target named is HLA-Cw*0202 (Cw2) (human). Kind of test: Luminex, regular beads (#7), 1:4.
For test [16], the target named is HLA-Cw*0401 (Cw4) (human). Kind of test: Luminex, regular beads (#7), 1:4.
In test [17] the target is HLA-Cw*0303 (Cw9) (human). In words: Luminex, regular beads (#7), 1:4.
For test [18], the target named is HLA-Cw*0102 (Cw1) (human). In words: Luminex, regular beads (#7), 1:4.
Test [19] deals with HLA-Cw*1802 (Cw18) (human). In words: Luminex, regular beads (#7), 1:4.
The target in another test is HLA-B*8201 (B82) (human). Kind of test: Luminex, regular beads (#7), 1:4.
In test [20] the target is HLA-Cw*1601 (Cw16) (human). In words: Luminex, regular beads (#7), 1:4.
Test [21] deals with HLA-Cw*0702 (Cw7) (human). Kind of test: Luminex, regular beads (#7), 1:4.
Test [22] addresses HLA-Cw*1502 (Cw15) (human). In words: Luminex, regular beads (#7), 1:4.
Test [23] addresses HLA-Cw*1701 (Cw17) (human). Kind of test: Luminex, regular beads (#7), 1:4.
In test [24] the target is HLA-Cw*0801 (Cw8) (human). In words: Luminex, iBeads (#6), 1:8.
Test [25] concerns the target HLA-Cw*0102 (Cw1) (human). In words: Luminex, iBeads (#6), 1:8.
In test [26] the target is HLA-A*6802 (A68) single antigen on Luminex beads (human). Kind of test: Luminex single antigen bead assay, regular beads (#7), IVIg 1:8.
Test [27] has as its target HLA-Cw*0801 (Cw8) (human). Kind of test: Luminex, regular beads (#7), 1:8.
For a further test, the target named is HLA-B*1501 (B62) (human). Kind of test: Luminex regular beads (#7), IVIg diluted 1:8.
For test [28], the target named is HLA-A*7401 (A74) single antigen on Luminex beads (human). In words: Luminex single antigen bead assay, iBeads (#6), IVIg 1:8.
For test [29], the target named is HLA-A*6802 (A68) single antigen on Luminex beads (human). Kind of test: Luminex single antigen bead assay, iBeads vs regular beads, IVIg 1:8.
Test [30] deals with HLA-A*4301 (A43) single antigen on beads (human). Kind of test: Luminex single-antigen regular beads (#7), IVIg 1:8.
Test [31] deals with HLA-A*3002 (A30) single antigen on beads (human). In words: Luminex, iBead vs regular bead, IVIg 1:8.
For test [32], the target named is HLA-A*3201 (A32) single antigen on beads (human). In words: Luminex, iBead vs regular bead, IVIg 1:8.
Test [33] addresses HLA-A*0301 (A3) on single antigen beads (human) (UniProt P04439). Kind of test: Luminex single antigen beads, iBeads (#6), 1:8.
The target in test [34] is Albumin on negative control beads (serum albumin, HSA/BSA) (human or bovine). Kind of test: Luminex single antigen beads, iBeads (#6), 1:8.
The target in test [35] is HLA-A*0301 (A3) on single antigen beads (human) (UniProt P04439). Kind of test: Luminex, iBead MFI against regular bead MFI, 1:8.
The target of test [36] is Albumin on negative control beads (serum albumin, HSA/BSA) (human or bovine). In words: Luminex, iBead MFI against regular bead MFI, 1:8.
The target of test [37] is HLA-Cw*0202 (Cw2) (human). In words: Luminex, iBeads (#6), 1:8.
Test [38] deals with HLA-Cw*0401 (Cw4) (human). Kind of test: Luminex, iBeads (#6), 1:8.
Test [39] concerns the target HLA-A*7401 (A74) single antigen on Luminex beads (human). In words: Luminex single antigen bead assay, iBeads vs regular beads, IVIg 1:8.
In test [40] the target is HLA-A*4301 (A43) single antigen on beads (human). In words: Luminex, iBead vs regular bead, IVIg 1:8.
The target in another test is HLA-B*1516 (B63) (human). In words: iBead MFI against regular-bead MFI, IVIg diluted 1:8.
Test [41] addresses HLA-A*6602 (A66) single antigen on beads (human). In words: Luminex, iBead vs regular bead, IVIg 1:8.
A further test has as its target HLA-B*1401 (B64) (human). In words: Luminex iBeads (#6), IVIg diluted 1:8.

With “IVIg Sandoglobulin (Novartis, Basel, Switzerland) (antibody)”, the MFI in test [1] amounted to 200 MFI; in [2] it was 0 MFI; in [3], 174 MFI; in test [4], 0 MFI; in test [5], 0 MFI; in test [6], 0 MFI. The MFI in [7] amounted to 185 MFI; in test [8], 255 MFI; in test [9] it was 93 MFI; in test [10], 844 MFI; in test [11], 1560 MFI; in test [12], 1024 MFI. Besides, the MFI in test [13] amounted to 991 MFI; in test [14], 985 MFI; in [15], 1280 MFI; in [16], 1570 MFI; in test [17], 703 MFI; in test [18], 998 MFI. In addition, the MFI in test [19] is 1550 MFI; with HLA-B*8201 (B82) (human), 639 MFI; in test [20] it was 973 MFI; in [21], 1970 MFI; in [22], 778 MFI; in [23] it was 1490 MFI.

Regarding IVIg Gamunex-C Lot NKLK1 (antibody), the MFI in [24] was found to be 467 MFI; in [25] it was 1060 MFI; in test [26] it was 1330 MFI; in test [27] it was 4540 MFI; in the test with HLA-B*1501 (B62) (human), 15 MFI; in [28], 515 MFI. This substance gave an MFI in test [30] of 1170 MFI. Moreover, the Difference % (iBead MFI against regular bead MFI) in test [29] was determined as 46%. Besides, the Difference % (iBead MFI vs regular bead MFI) in test [31] came out at 151%; in [32] it was 116%.

For “Octagam (IVIg, Octapharma, Lachen, Switzerland) (antibody)”, the results for the MFI in test [33] and in [34] were 0 MFI and 1670 MFI, respectively. Further, the values for the Difference % (iBead against regular bead) in test [35] and in test [36] were -100% and -29%, respectively.

For “IVIg Octagam (Octapharma, Lachen, Switzerland) (antibody)”, the MFI stood at 650 MFI in test [24]; 1840 MFI in test [37]; 2010 MFI in test [38]; 1780 MFI in [25]; 1750 MFI in test [26]; 4420 MFI in test [27]. In addition, the Difference % (iBead MFI against regular bead MFI) in test [39] is -59%. The results for the Difference % (iBead MFI vs regular bead MFI) in test [31], in [40] and in test [32] were -31%, -11% and -30%, respectively.

For IVIg Gamunex-C Lot NKLG1 (antibody), the values for the MFI (in test [38]; in the test with HLA-B*1501 (B62) (human); in test [28]) were 3730 MFI, 0 MFI and 3900 MFI, respectively. For the same substance, the Difference % (iBead vs regular bead) with HLA-B*1516 (B63) (human) was -36%. For the same substance, the Difference % (iBead MFI against regular bead MFI) in [39] came out at 486%; in test [29], 228%. Also, the Difference % (iBead MFI vs regular bead MFI) in test [40] amounted to 186%; in test [41], 372%.

Take “IVIg GamaSTAN S/D (Talecris Biotherapeutics, USA) (antibody)”: the MFI is 1940 MFI in [24], 8100 MFI in test [37], 269 MFI in the test with HLA-B*1401 (B64) (human) and 1910 MFI in [30]. In addition, the Difference % (iBead vs regular bead) in the test with HLA-B*1516 (B63) (human) was -7%. Moreover, the Difference % (iBead MFI vs regular bead MFI) in test [41] was determined as 83%.
